Where “and” joins values, the source holds several entries; their conditions need not be identical. Equal entries are not always repeated.
Columns and labels:
[1] = molecular target: T1, DUF4297–HerA complex (Escherichia coli, UniProt A0ABF7PQ56); assay: cryo-EM structure; format: binding; conditions: with 59-bp dsDNA, 1 mM AMPPNP, 5 mM MgCl2; site at interface of RecA-like domains of adjacent HerA subunits; states 1 and 2
T1 construct: gene CG692_10950; co-expressed in E. coli BL21(DE3) from pET28a, His tag at N-terminus of DUF4297; about 1 MDa complex of 12 DUF4297 and 6 HerA; with DUF4297 domain-containing protein (dsDNA endonuclease Cap4-like domain-containing anti-phage protein)
T1 sequence (A0ABF7PQ56 1-571): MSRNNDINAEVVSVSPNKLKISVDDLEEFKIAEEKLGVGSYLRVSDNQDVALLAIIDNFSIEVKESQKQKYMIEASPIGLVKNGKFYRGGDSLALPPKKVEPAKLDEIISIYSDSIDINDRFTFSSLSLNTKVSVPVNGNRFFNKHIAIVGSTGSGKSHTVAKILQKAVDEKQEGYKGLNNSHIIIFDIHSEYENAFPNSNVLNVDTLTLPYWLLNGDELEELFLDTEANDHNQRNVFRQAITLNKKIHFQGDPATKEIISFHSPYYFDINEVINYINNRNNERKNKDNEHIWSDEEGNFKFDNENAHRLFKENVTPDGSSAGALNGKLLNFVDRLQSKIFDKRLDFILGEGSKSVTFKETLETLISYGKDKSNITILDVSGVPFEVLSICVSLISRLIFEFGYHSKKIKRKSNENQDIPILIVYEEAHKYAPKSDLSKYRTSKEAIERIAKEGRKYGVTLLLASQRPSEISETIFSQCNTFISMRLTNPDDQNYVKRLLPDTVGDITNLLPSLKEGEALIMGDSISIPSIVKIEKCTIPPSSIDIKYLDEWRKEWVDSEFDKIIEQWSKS
T1 sequence (A0ABF7PQ57 1-394 partner): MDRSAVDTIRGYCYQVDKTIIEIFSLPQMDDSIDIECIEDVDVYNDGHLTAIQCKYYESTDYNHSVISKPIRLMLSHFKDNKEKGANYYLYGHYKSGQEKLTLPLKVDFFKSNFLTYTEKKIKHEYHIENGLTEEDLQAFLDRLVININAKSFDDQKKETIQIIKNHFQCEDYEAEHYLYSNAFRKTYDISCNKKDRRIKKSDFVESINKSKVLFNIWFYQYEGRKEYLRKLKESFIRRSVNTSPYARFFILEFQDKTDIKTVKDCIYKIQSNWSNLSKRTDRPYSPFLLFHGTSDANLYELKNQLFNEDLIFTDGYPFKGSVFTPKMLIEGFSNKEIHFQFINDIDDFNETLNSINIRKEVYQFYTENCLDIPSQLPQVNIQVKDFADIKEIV

[2] = molecular target: T1, DUF4297–HerA complex; assay: phosphate release, modified Baginski method; format: biochemical; conditions: 5 nM complex, 20 mM Tris-HCl pH 8.0, 50 mM NaCl, 5 mM MgCl2, 5 mM DTT, 37 °C
[3] = molecular target: DUF4297; assay: AUC; sedimentation velocity, 55,000 rpm, 4 °C, ~1 mg/mL, 20 mM Tris-HCl pH 8.0, 500 mM NaCl
[4] = molecular target: HerA; assay: cryo-EM structure; purified DUF4297–HerA complex with 1 mM AMPPNP, 5 mM MgCl2 and 59-bp dsDNA (1:1.2); state 1 at 2.73 Å and state 2 at 2.92 Å
[5] = molecular target: DUF4297
[6] = molecular target: HerA; assay: cryo-EM structure; co-expressed and purified DUF4297–HerA complex without nucleotide or DNA, ~1.0 mg/mL, C2 symmetry imposed, 2.87 Å
[7] = molecular target: DUF4297; assay: as above
[8] = molecular target: HerA; assay: cryo-EM structure; HerA alone, ~1.0 mg/mL, 3.14 Å

With `Nc1ncnc2c1ncn2[C@@H]1O[C@H](COP(=O)(O)OP(=O)(O)NP(=O)(O)O)[C@@H](O)[C@H]1O` [AMPPNP] the cryo-EM structure [1] was “three DNA-engaged subunits A–C bind ATP (AMPPNP in the structure)”.
With `Nc1ncnc2c1ncn2[C@@H]1O[C@H](COP(=O)(O)OP(=O)(O)OP(=O)(O)O)[C@@H](O)[C@H]1O` [ATP] the “phosphate release, modified Baginski method” value [2] was “the DUF4297–HerA complex exhibits a high turnover rate under the same testing condition”.
With DUF4297 (enzyme) the stoichiometry N [3] was 2.
Work on HerA (enzyme) yielded a stoichiometry N [4] of 6, a fold decrease in dsDNA nuclease activity of DUF4297 alone against the DUF4297–HerA complex [5] of 300 fold and a stoichiometry N [6] of 6. The stoichiometry N (DUF4297 per HerA) [7] was 2 and the stoichiometry N [8] was 6 and 5.
